Measurements taken from the supplement of paper PMC7125110.
± gives the standard error. Variants at the floor of the assay were thinned out.

B1: glmS ribozyme (parent)
chain: AUAAAAGCGCCAGAACUACAGAAAUGUAGUUGACGAGGAGGAGGUUUAUCGAAUUUUCGGCGGAUGCCUCCAAA

Variants of: B1
Test: self-cleavage kobs at 2500 uM GlcN6P; higher = faster cleavage; RNA array
Conditions: with glucosamine-6-phosphate
How it was run: (§1)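 Ribozyme variants carrying barcodes were transcribed in situ on sequenced MiSeq chips by E. coli RNA polymerase and tracked at 37 °C with a hybridised Cy3 probe. They were exposed to 40 μM to 10 mM glucosamine-6-phosphate in HEPES/KCl/Mg(OAc)2 buffer. kobs came from exponential decay fits of normalised per-tile medians, and kcat and KM from weighted Michaelis–Menten fits.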

Variant	self-cleavage kobs at 2500 uM GlcN6P [s⁻¹]
G21A A48C	0.000242 ± 7.9e-05
A12U U54A C58U	4.04e-05 ± 1.6e-05
A14U C16U C58U	5.54e-05 ± 1.5e-05
A14U G40A G43A U45G	0.000402 ± 8.4e-05
A12U A15U C50G C70G	0.000215 ± 5.7e-05
A15U G41A C50G C71U	< 1e-05
G13U U55G C67A	8.05e-05 ± 1.9e-05
A12U G44U C70U	5.27e-05 ± 1.8e-05
C16G C50A C70A	8.7e-05 ± 2.4e-05
A15G G44C	0.00014 ± 4.2e-05
A12U G41A C68U	3.9e-05 ± 1.6e-05
A14C C50A A53U C70G	4.72e-05 ± 2e-05
A12U C50U U65C	< 1e-05
A15G G59U G63U	< 1e-05
A15U A33U G62A	< 1e-05
A15C G32U G38C G59U	< 1e-05
A14C G26U G62U C68U	< 1e-05
G26U G29U U55A C70A	8.18e-05 ± 2.7e-05
G13C A36C C71U	< 1e-05
A15C C16U U17A C70G	7.4e-05 ± 1.7e-05
A15G U30C G51U U65C	< 1e-05
G29U G32U A42G C71A	4.56e-05 ± 1.7e-05
A14U U65A U69C	0.000173 ± 4.9e-05
C16A U30A U65A	5.07e-05 ± 1.8e-05
A14G A15U U31G G43U U45A	< 1e-05
C16U C58U U69G	7.44e-05 ± 2.1e-05
C16A G38A U55A	< 1e-05

Variant	self-cleavage kobs at 2500 uM GlcN6P [s⁻¹]
G13A A14U A53U U54C G60A	< 1e-05
G13U G41C G60A	< 1e-05
A12U U49G G59C	< 1e-05
A15C U31G A53C	0.000196 ± 3.5e-05
C16G G29A G37A U49G C50U	< 1e-05
C16U G32A G41A	0.000133 ± 2.7e-05
G29C G62A C70G	3.86e-05 ± 1.9e-05
A14C G29U A39C U46G U47A	< 1e-05
C16U U30A U65A	8.89e-05 ± 1.9e-05
G13U U45A A52G	5.37e-05 ± 2.1e-05
U30A U31G A48C	6.79e-05 ± 1.6e-05
A14C G43A C61U	< 1e-05
A14C U54A U55A	0.00221 ± 0.00054
U30G C67U C71G	0.00027 ± 9.4e-05
A15U G29U C61U	< 1e-05
U30C U45A U55A C67U	0.00196 ± 0.00072
A14G G35U G37A	< 1e-05
A12U A39U G63A	< 1e-05
A12G U45A C70G	0.000143 ± 3.9e-05
C16G G37A A48G G60A U65G C67U	< 1e-05
A14C U54A G59C C71U	< 1e-05
A14U G40C A64G	6.98e-05 ± 1.7e-05
C16U U46G U55C	0.00261 ± 0.00068
A14G G51C G62C U65A C68G C70A	< 1e-05
A15G A39C U45A U56C	0.000239 ± 5.6e-05
A15G C58U C70U	3.63e-05 ± 1.4e-05
G29A A33G G38A G60U	< 1e-05

Variant	self-cleavage kobs at 2500 uM GlcN6P [s⁻¹]
A15U A52U C67G	0.000122 ± 3.6e-05
U30G G40U U57G	< 1e-05
A15G G32C C70G	< 1e-05
U30G A53U C58G	0.000116 ± 3.9e-05
A14U G43C C68U	5.22e-05 ± 1.6e-05
G13A G32U C67A	3.47e-05 ± 1.3e-05
G13C C61A	< 1e-05
A12G U46G C71U	9.1e-05 ± 2.1e-05
C16A A39U C71A	6.01e-05 ± 1.6e-05
G13U G43U G63U	< 1e-05
C16U C34A G59C U69A	< 1e-05
A15U U49G G66U	< 1e-05
A14G C34U G35A G43C	< 1e-05
A14U C16A G63A	< 1e-05
C16A G40U U57A C67U	< 1e-05
A14C A52G	0.000215 ± 3.3e-05
A14C C16U G40C G44A G60A	< 1e-05
G21U G29C A42G	0.000483 ± 0.00016
U30C G35C C50A C68A	< 1e-05
A14G A53C U57G	0.000168 ± 5.2e-05
A14U G29U C67U	9.48e-05 ± 2.4e-05
A12U C16A A42U G51U	< 1e-05
A15G G35C A64G	< 1e-05
A15U C58G	2.95e-05 ± 1e-05
C16A U31G G32U	9.46e-05 ± 1.9e-05

Variants of: B1
Test: self-cleavage kobs at 10000 uM GlcN6P; higher = faster cleavage; RNA array
Conditions: with glucosamine-6-phosphate
How it was run: as §1

Variant	self-cleavage kobs at 10000 uM GlcN6P [s⁻¹]
A12U U54A C58U	6.78e-05 ± 1.3e-05
A15G G44C	0.000166 ± 3.2e-05
A12U G41A C68U	6.86e-05 ± 1.4e-05
A14U U65A U69C	0.000191 ± 3.3e-05
C16U G32A G41A	0.00033 ± 9.1e-05
A14C U54A G59C C71U	< 1e-05
C16A G40U U57A C67U	< 1e-05
A14C A52G	0.000282 ± 5.3e-05
A15U C58G	4.63e-05 ± 1.2e-05
